Results taken from patent publication US20260184748A1, “COMPOSITIONS COMPRISING OCTADECANEUROPEPTIDES (ODN) AND SYNTHETIC DERIVATIVES THEREOF AND METHODS OF USE FOR MODULATION OF FOOD INTAKE, OBESITY, BODY WEIGHT, NAUSEA, AND EMESIS” (The Trustees of the University of Pennsylvania, priority 2022, published 2026).

Experiments:
Test in all cases: cell-based or functional assay
BDKRB2 = BDKRB2 (UniProt P30411)
CCR2 = CCR2 (UniProt P41597)
CCR1 = molecular target: T1, CCR1 (UniProt P32246)
T1 sequence (looked up): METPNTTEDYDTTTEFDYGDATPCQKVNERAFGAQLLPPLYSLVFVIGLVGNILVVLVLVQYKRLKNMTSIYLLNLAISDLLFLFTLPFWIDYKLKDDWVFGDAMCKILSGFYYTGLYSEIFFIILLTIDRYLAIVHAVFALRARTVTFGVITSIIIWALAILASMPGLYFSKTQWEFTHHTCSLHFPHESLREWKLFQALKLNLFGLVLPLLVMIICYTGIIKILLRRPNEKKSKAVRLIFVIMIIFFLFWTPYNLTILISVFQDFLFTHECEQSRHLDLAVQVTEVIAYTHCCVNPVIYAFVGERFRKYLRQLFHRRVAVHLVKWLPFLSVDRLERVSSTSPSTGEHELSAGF

CCR5 = CCR5 (UniProt P51681)
CCR3 = CCR3 (UniProt P51677)
CCR7 = CCR7 (UniProt P32248)
CCR6 = molecular target: T2, CCR6 (UniProt P51684)
T2 sequence (looked up): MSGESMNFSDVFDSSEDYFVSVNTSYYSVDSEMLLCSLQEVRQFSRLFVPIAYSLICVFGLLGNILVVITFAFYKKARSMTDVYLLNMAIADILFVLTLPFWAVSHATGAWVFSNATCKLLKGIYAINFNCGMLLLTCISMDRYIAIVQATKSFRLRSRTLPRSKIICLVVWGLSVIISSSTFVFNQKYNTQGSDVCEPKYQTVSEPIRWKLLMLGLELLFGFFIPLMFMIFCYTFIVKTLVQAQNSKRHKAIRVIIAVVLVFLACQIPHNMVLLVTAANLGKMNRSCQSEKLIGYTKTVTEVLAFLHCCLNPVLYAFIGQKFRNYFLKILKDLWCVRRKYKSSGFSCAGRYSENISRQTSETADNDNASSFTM

CCR9 = CCR9 (UniProt P51686)
CXCR1 = molecular target: T3, CXCR1 (UniProt P25024)
T3 sequence (looked up): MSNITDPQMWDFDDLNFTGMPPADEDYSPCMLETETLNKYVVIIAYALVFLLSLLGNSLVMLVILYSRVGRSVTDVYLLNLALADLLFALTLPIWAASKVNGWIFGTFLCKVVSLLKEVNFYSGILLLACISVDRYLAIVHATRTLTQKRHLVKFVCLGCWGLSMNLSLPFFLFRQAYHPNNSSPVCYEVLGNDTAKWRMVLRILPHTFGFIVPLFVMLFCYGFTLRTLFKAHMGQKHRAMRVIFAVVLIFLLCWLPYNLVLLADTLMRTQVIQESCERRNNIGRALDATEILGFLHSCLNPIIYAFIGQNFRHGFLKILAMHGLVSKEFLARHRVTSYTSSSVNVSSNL

CXCR2 = CXCR2 (UniProt P25025)
CALCR = molecular target: T4, CALCR (UniProt P30988)
T4 sequence (looked up): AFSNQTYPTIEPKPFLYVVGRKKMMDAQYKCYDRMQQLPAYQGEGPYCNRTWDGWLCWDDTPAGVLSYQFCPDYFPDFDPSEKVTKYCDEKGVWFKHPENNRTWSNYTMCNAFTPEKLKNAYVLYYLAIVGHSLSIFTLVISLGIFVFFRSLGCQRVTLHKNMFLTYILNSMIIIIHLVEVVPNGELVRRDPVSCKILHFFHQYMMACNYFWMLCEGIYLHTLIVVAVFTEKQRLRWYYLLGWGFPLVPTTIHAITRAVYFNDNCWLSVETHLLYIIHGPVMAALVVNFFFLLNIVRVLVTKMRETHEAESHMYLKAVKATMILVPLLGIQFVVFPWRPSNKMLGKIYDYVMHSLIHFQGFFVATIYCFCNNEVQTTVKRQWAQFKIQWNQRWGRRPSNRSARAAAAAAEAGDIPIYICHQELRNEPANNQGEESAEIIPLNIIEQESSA

CALCR-RAMP2 = CALCR-RAMP2 (UniProt P30988)
CALCR-RAMP3 = molecular target: T5, CALCR-RAMP3 (UniProt P30988)
T5 sequence (looked up) 1: T4 sequence (looked up)
T5 sequence (looked up) 2: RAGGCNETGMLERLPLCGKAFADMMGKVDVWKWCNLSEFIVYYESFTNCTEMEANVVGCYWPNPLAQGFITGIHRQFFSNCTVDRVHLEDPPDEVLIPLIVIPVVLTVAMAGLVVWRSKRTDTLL

GPR1 = GPR1 (UniProt P46091)
C5L2 = C5L2 (UniProt Q9P296)
C5aR1 = C5aR1 (UniProt P21730)
CX3CR1 = CX3CR1 (UniProt P49238)
GIPR = GIPR (UniProt P48546)
GLP2R = GLP2R (UniProt O95838)
GRPR = GRPR (UniProt P30550)
GALR2 = molecular target: T6, GALR2 (UniProt O43603)
T6 sequence (looked up): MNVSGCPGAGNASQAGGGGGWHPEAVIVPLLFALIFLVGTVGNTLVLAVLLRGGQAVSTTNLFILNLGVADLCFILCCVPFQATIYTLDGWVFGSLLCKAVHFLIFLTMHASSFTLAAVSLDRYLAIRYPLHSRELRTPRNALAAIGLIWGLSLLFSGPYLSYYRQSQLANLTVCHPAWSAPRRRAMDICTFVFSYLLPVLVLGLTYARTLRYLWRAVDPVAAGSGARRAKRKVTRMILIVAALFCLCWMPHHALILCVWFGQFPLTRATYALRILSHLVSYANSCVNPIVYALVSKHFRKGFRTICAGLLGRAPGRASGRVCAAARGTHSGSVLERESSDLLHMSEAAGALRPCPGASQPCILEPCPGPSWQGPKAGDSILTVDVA

KISS1R = KISS1R (UniProt Q969F8)
BDKRB1 = BDKRB1 (UniProt P46663)
MLNR = MLNR (UniProt O43193)
HCRTR2 = HCRTR2 (UniProt O43614)
OXTR = OXTR (UniProt P30559)
NPY1R = NPY1R (UniProt P25929)
PRLHR = PRLHR (UniProt P49683)
[1] = molecular target: relaxin-3 receptor (RXFP3) (UniProt Q9NSD7)
SCTR = SCTR (UniProt P47872)
BRS3 = BRS3 (UniProt P32247)
TRHR = TRHR (UniProt P34981)
VIPR1 = VIPR1 (UniProt P32241)

Sequence of Calcitonin (P01258 85-116 limits assumed): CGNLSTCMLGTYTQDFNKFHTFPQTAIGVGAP
Sequence of CCL3 (P10147 24-92 limits assumed): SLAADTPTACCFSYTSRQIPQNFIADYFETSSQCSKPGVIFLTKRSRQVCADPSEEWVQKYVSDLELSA
Sequence of Complement C5a (P01031 678-751 limits assumed): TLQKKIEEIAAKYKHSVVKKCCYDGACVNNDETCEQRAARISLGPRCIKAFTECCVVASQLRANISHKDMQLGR
Sequence of CXCL8 (P10145 28-99 limits assumed): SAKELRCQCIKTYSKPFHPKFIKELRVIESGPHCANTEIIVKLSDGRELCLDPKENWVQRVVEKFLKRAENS
Sequence of CXCR2 (P25025 whole entry): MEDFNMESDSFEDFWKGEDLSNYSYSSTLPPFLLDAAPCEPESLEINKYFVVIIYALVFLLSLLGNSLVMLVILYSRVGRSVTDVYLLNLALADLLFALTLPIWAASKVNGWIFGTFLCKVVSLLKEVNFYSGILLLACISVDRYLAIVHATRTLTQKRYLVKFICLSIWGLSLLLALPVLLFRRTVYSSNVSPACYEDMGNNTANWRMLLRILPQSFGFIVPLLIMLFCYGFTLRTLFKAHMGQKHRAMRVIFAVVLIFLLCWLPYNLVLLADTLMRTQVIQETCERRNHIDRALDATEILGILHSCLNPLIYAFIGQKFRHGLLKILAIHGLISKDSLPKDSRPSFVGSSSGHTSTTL
Sequence of Galanin (P22466 33-62 limits assumed): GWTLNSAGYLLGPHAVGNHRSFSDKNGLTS
Sequence of CCR2 (P41597 other isoform, or with tags, fused parts or gaps limits assumed): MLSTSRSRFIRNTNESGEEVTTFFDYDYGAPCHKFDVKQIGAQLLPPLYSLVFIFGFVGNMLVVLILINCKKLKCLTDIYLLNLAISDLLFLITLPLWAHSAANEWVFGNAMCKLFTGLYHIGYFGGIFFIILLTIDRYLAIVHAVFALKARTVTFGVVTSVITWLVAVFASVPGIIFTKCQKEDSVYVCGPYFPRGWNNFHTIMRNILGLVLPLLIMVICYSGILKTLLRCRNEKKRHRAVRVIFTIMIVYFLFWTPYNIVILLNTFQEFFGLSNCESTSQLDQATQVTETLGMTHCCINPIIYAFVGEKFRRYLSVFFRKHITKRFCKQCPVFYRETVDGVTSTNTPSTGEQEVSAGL
Sequence of Fractalkine (P78423 25-100 limits assumed): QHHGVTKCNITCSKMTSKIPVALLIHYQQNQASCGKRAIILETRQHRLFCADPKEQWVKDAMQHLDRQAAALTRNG
Sequence of KISS1R (Q969F8 whole entry): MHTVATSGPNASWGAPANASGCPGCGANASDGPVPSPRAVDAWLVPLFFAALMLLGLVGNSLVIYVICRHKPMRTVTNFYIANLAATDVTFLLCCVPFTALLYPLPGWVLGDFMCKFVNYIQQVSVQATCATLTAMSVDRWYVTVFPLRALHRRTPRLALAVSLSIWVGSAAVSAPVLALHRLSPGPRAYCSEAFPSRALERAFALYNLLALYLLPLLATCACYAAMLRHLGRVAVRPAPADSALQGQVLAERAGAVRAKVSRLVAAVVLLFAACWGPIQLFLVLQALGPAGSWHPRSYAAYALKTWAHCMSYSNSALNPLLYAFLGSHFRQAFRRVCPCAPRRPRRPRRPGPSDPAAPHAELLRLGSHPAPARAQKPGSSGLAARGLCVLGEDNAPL
Sequence of BRS3 (P32247 whole entry): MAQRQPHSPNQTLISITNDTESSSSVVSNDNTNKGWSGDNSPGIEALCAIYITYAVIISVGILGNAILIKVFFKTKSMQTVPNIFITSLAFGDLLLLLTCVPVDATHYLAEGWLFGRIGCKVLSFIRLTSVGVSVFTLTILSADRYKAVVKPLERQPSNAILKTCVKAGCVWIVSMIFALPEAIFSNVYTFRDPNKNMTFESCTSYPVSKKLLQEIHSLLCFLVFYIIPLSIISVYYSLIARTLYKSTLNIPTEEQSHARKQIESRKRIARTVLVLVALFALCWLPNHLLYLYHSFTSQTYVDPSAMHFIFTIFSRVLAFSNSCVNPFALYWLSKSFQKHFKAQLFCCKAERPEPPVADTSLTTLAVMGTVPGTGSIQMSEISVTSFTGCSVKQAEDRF
Sequence of CCR3 (P51677 whole entry): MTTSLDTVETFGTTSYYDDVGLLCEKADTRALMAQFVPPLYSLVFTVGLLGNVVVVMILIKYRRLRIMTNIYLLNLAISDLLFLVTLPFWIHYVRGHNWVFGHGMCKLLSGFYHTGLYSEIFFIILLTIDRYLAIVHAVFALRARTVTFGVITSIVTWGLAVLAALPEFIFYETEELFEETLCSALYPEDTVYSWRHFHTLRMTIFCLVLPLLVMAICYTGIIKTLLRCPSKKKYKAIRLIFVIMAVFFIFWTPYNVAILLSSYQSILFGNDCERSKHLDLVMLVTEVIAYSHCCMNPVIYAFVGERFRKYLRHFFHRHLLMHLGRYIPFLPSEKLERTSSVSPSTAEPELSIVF
Sequence of CCR5 (P51681 whole entry): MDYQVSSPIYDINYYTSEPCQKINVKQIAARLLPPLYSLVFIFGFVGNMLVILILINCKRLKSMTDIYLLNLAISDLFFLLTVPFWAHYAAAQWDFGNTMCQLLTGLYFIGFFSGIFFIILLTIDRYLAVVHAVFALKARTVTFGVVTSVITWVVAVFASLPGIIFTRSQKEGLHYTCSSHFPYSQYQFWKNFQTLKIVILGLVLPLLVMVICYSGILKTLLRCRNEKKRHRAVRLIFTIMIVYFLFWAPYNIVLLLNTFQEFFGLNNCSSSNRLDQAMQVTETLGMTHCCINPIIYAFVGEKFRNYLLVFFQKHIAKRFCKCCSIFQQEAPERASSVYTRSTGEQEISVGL
Sequence of GIPR (P48546 22-466 limits assumed): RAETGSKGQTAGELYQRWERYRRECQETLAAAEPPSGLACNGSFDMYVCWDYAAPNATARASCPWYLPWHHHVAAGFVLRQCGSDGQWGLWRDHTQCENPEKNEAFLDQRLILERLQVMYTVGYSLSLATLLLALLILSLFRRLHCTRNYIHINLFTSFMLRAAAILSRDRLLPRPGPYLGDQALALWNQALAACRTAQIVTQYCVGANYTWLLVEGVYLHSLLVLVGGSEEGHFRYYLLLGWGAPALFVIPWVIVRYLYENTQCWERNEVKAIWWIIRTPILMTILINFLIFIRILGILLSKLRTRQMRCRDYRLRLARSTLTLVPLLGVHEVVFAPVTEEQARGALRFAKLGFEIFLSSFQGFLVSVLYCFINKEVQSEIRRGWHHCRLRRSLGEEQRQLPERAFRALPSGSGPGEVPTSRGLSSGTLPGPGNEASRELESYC
Sequence of C5aR1 (P21730 whole entry): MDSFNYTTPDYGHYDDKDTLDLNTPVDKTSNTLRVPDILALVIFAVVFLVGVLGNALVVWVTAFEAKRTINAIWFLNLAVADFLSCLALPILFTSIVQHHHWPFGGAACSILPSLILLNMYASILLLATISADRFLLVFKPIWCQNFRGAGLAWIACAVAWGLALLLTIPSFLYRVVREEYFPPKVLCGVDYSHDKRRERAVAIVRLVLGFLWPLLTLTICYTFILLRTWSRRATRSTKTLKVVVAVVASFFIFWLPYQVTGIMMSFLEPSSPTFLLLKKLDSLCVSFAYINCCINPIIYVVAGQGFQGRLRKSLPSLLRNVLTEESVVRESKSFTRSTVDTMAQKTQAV
Sequence of NPY1R (P25929 whole entry): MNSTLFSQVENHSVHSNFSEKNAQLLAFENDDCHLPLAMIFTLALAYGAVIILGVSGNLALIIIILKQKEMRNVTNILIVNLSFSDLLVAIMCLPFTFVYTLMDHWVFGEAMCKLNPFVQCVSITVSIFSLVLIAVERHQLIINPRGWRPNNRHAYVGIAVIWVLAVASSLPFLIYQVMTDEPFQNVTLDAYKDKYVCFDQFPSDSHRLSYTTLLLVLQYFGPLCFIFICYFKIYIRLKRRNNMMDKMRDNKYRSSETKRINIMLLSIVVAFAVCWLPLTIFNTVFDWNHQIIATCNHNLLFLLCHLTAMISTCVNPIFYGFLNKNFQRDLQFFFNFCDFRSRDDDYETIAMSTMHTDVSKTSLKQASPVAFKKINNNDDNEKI
Sequence of OXTR (P30559 whole entry): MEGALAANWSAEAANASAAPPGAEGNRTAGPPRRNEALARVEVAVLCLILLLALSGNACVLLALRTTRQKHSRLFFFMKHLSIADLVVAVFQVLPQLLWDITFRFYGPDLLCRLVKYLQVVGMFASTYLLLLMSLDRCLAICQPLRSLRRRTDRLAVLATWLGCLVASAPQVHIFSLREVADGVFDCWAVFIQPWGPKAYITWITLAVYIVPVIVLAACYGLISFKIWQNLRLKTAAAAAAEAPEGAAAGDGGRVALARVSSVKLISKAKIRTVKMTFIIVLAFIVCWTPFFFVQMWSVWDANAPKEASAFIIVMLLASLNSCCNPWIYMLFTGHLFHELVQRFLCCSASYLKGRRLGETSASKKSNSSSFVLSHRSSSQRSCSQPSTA
Sequence of GRPR (P30550 whole entry): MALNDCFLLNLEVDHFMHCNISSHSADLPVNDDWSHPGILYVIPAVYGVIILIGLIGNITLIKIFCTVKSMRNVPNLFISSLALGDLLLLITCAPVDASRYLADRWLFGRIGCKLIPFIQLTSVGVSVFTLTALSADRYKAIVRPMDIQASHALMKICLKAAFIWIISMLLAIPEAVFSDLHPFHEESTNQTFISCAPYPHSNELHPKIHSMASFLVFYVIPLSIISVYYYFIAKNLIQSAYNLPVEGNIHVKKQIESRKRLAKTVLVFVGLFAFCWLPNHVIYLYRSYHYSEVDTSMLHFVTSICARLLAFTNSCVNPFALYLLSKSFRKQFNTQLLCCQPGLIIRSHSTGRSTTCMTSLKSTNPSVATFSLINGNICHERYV
Sequence of CCL20 (P78556 27-96 limits assumed): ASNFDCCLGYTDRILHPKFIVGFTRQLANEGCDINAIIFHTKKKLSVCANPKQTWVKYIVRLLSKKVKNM
Sequence of CCL19 (Q99731 22-98 limits assumed): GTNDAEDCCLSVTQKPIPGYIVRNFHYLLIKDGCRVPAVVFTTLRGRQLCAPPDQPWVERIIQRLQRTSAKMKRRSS
Sequence of PrRP-31 (P81277 23-53 limits assumed): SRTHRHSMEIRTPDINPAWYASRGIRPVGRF

“Bradykinin (from UniProt P01042 381-389) (peptide)” was tested, and the EC50 (RC50), arrestin, agonist mode (BDKRB2) was 5.57 nM and the EC80, arrestin, agonist mode (BDKRB2) was 9.82 nM.
Work on “CCL2 (from UniProt P13500 24-99) (ligand)” yielded an EC50 (RC50), arrestin, agonist mode (CCR2) of 2.63 nM and an EC80, arrestin, agonist mode (CCR2) of 6.92 nM.
Work on “CCL3 (from UniProt P10147 24-92) (ligand)” yielded an EC50 (RC50), arrestin, agonist mode (CCR1) of 1.04 nM, an EC80, arrestin, agonist mode (CCR1) of 2.53 nM and an EC50 (RC50), arrestin, agonist mode (CCR5) of 7.55 nM. It also gave an EC80, arrestin, agonist mode (CCR5) of 30.3 nM.
“CCL13 (from UniProt Q99616 24-98) (ligand)” showed an EC50 (RC50), arrestin, agonist mode (CCR3) of 40.6 nM and an EC80, arrestin, agonist mode (CCR3) of 140 nM.
In the case of “CCL19 (from UniProt Q99731 22-98) (ligand)”, the EC50 (RC50), arrestin, agonist mode (CCR7) is reported as 5.65 nM and the EC80, arrestin, agonist mode (CCR7) is reported as 19 nM.
In the case of “CCL20 (from UniProt P78556 27-96) (ligand)”, the EC50 (RC50), arrestin, agonist mode (CCR6) is reported as 2.95 nM and the EC80, arrestin, agonist mode (CCR6) is reported as 14.3 nM.
In the case of “CCL25 (from UniProt O15444 24-150) (ligand)”, the EC50 (RC50), arrestin, agonist mode (CCR9) is reported as 173 nM and the EC80, arrestin, agonist mode (CCR9) is reported as 370 nM.
“CXCL8 (from UniProt P10145 28-99) (ligand)” was tested, and the EC50 (RC50), arrestin, agonist mode (CXCR1) was 2.8 nM, the EC80, arrestin, agonist mode (CXCR1) was 14.8 nM and the EC50 (RC50), arrestin, agonist mode (CXCR2) was 0.304 nM. The EC80, arrestin, agonist mode (CXCR2) was 0.968 nM.
In the case of “Calcitonin (from UniProt P01258 85-116) (peptide)”, the EC80, arrestin, agonist mode (CALCR) is reported as 72.9 nM, the EC80, arrestin, agonist mode (CALCR-RAMP2) is reported as 33.7 nM and the EC80, arrestin, agonist mode (CALCR-RAMP3) is reported as 384 nM.
“Chemerin (from UniProt Q99969 21-157) (ligand)” showed an EC50 (RC50), arrestin, agonist mode (GPR1) of 2.26 nM and an EC80, arrestin, agonist mode (GPR1) of 4.67 nM.
“Complement C5a (from UniProt P01031 678-751) (ligand)” gave an EC50 (RC50), arrestin, agonist mode (C5L2) of 1.57 nM, an EC80, arrestin, agonist mode (C5L2) of 2.7 nM and an EC50 (RC50), arrestin, agonist mode (C5aR1) of 1.38 nM. For the same substance, the EC80, arrestin, agonist mode (C5aR1) was 3.64 nM.
Substance “Fractalkine (from UniProt P78423 25-100) (ligand)” has an EC50 (RC50), arrestin, agonist mode (CX3CR1) of 0.444 nM and an EC80, arrestin, agonist mode (CX3CR1) of 1.45 nM.
For “GIP (from UniProt P09681 52-93) (peptide)”, the EC50 (RC50), arrestin, agonist mode (GIPR) was 4.87 nM and the EC80, arrestin, agonist mode (GIPR) was 18.5 nM.
“GLP II (1-33) (from UniProt P01275 21-180) (peptide)” was tested, and the EC50 (RC50), arrestin, agonist mode (GLP2R) was 2.3 nM and the EC80, arrestin, agonist mode (GLP2R) was 8.97 nM.
“GRP (from UniProt P07492 24-50) (peptide)” gave an EC50 (RC50), arrestin, agonist mode (GRPR) of 1.62 nM and an EC80, arrestin, agonist mode (GRPR) of 5.92 nM.
Substance “Galanin (from UniProt P22466 33-62) (peptide)” has an EC50 (RC50), arrestin, agonist mode (GALR2) of 6.81 nM and an EC80, arrestin, agonist mode (GALR2) of 12.2 nM.
For “Kisspeptin-10 (from UniProt Q15726 112-121) (peptide)”, the EC50 (RC50), arrestin, agonist mode (KISS1R) was 17.6 nM and the EC80, arrestin, agonist mode (KISS1R) was 37.6 nM.
For LDA-Bradykinin (peptide), the EC50 (RC50), arrestin, agonist mode (BDKRB1) was 3.65 nM and the EC80, arrestin, agonist mode (BDKRB1) was 14 nM.
“Motilin (from UniProt P12872 26-47) (peptide)” was tested, and the EC50 (RC50), arrestin, agonist mode (MLNR) was 1.59 nM and the EC80, arrestin, agonist mode (MLNR) was 5.63 nM.
In the case of “Orexin A (from UniProt O43612 34-66) (peptide)”, the EC50 (RC50), arrestin, agonist mode (HCRTR2) is reported as 18.2 nM and the EC80, arrestin, agonist mode (HCRTR2) is reported as 42.5 nM.
In the case of “Oxytocin (from UniProt P01178 20-28) (peptide)”, the EC50 (RC50), arrestin, agonist mode (OXTR) is reported as 3.23 nM and the EC80, arrestin, agonist mode (OXTR) is reported as 7.19 nM.
Work on Peptide YY (from UniProt P10082 29-64) yielded an EC50 (RC50), arrestin, agonist mode (NPY1R) of 3.93 nM and an EC80, arrestin, agonist mode (NPY1R) of 12.4 nM.
“PrRP-31 (from UniProt P81277 23-53) (peptide)” was tested, and the EC80, arrestin, agonist mode (PRLHR) was 10.7 nM.
Work on “Relaxin-3 (from UniProt Q8WXF3 26-142; Q8WXF3 26-142) (ligand)” yielded an EC50 (RC50), arrestin, agonist mode [1] of 11.9 nM and an EC80, arrestin, agonist mode [1] of 62.5 nM.
Work on “Secretin (from UniProt P09683 28-54) (peptide)” yielded an EC50 (RC50), arrestin, agonist mode (SCTR) of 1.74 nM and an EC80, arrestin, agonist mode (SCTR) of 9.2 nM.
In the case of TAPN-Bombesin (peptide), the EC50 (RC50), arrestin, agonist mode (BRS3) is reported as 1.24 nM and the EC80, arrestin, agonist mode (BRS3) is reported as 3.73 nM.
“TRH (from UniProt P20396 84-86) (peptide)” showed an EC50 (RC50), arrestin, agonist mode (TRHR) of 2.02 nM and an EC80, arrestin, agonist mode (TRHR) of 7.14 nM.
Work on “VIP (from UniProt P01282 125-152) (peptide)” yielded an EC50 (RC50), arrestin, agonist mode (VIPR1) of 1.73 nM and an EC80, arrestin, agonist mode (VIPR1) of 3.69 nM.
